T1: EsCas13d, nuclease-dead (Eubacterium siraeum, UniProt B0MS50, R295A;H300A;R849A;H854A)
T1 sequence: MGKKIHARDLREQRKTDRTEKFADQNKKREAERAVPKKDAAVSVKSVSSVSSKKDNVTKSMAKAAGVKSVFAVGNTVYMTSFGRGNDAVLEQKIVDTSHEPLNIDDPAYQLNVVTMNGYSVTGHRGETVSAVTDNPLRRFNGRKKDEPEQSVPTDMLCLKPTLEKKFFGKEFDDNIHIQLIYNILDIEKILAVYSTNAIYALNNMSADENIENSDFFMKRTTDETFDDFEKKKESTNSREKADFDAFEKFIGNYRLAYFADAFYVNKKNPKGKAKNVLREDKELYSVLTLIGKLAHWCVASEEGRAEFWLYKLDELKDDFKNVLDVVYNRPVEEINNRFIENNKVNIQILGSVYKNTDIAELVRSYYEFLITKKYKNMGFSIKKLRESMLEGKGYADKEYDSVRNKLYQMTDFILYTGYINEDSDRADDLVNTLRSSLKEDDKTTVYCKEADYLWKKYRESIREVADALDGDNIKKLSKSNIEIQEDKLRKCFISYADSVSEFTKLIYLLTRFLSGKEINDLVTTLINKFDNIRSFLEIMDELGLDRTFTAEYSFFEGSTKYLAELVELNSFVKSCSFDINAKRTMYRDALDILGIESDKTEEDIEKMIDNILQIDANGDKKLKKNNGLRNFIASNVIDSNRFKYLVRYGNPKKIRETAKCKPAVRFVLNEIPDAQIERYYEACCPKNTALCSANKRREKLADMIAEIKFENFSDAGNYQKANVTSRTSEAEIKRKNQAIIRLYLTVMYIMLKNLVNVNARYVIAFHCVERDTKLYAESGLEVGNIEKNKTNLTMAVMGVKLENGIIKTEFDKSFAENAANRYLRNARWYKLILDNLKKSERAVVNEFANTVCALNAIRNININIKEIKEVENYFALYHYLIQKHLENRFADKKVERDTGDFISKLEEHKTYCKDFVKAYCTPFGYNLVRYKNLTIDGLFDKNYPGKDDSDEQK

B1: target 3 insU 3' of 11,insC 3' of 4 (mixed)
RNA 1: CACCCGUGCAAAAUUGCAGGGGUCUAAAACGACCUGAAUAUUUCAGAUCAAA
RNA 2: GGGAAUGGAUCCACAUCUACGAAUUCGUUUUUGAUCUGAAAUUAUUCAGCGUCUGCAGAUCGGAAGAGCACACGU
B2: target 3 G3C,U8C (mixed)
RNA 1: CACCCGUGCAAAAUUGCAGGGGUCUAAAACGACCUGAAUAUUUCAGAUCAAA
RNA 2: GGGAAUGGAUCCACAUCUACGAAUUCGUUUUUGAUCUGAAAUACUCAGCUCUGCAGAUCGGAAGAGCACACGU
B3: target 3 insG 3' of 6,insG 3' of 5 (mixed)
RNA 1: CACCCGUGCAAAAUUGCAGGGGUCUAAAACGACCUGAAUAUUUCAGAUCAAA
RNA 2: GGGAAUGGAUCCACAUCUACGAAUUCGUUUUUGAUCUGAAAUAUUCGAGGGUCUGCAGAUCGGAAGAGCACACGU
B4: target 3 insA 3' of 22,insC 3' of 2 (mixed)
RNA 1: CACCCGUGCAAAAUUGCAGGGGUCUAAAACGACCUGAAUAUUUCAGAUCAAA
RNA 2: GGGAAUGGAUCCACAUCUACGAAUUCGUUUAUUGAUCUGAAAUAUUCAGGUCCUGCAGAUCGGAAGAGCACACGU
B5: target 3 insC 3' of 11 (mixed)
RNA 1: CACCCGUGCAAAAUUGCAGGGGUCUAAAACGACCUGAAUAUUUCAGAUCAAA
RNA 2: GGGAAUGGAUCCACAUCUACGAAUUCGUUUUUGAUCUGAAACUAUUCAGGUCUGCAGAUCGGAAGAGCACACGU
B6: target 3 insC 3' of 5,insG 3' of 1 (mixed)
RNA 1: CACCCGUGCAAAAUUGCAGGGGUCUAAAACGACCUGAAUAUUUCAGAUCAAA
RNA 2: GGGAAUGGAUCCACAUCUACGAAUUCGUUUUUGAUCUGAAAUAUUCACGGUCGUGCAGAUCGGAAGAGCACACGU
B7: target 3 insU 3' of 5,insA 3' of 2 (mixed)
RNA 1: CACCCGUGCAAAAUUGCAGGGGUCUAAAACGACCUGAAUAUUUCAGAUCAAA
RNA 2: GGGAAUGGAUCCACAUCUACGAAUUCGUUUUUGAUCUGAAAUAUUCAUGGUACUGCAGAUCGGAAGAGCACACGU
B8: target 3 insU 3' of 22,insA 3' of 21 (mixed)
RNA 1: CACCCGUGCAAAAUUGCAGGGGUCUAAAACGACCUGAAUAUUUCAGAUCAAA
RNA 2: GGGAAUGGAUCCACAUCUACGAAUUCGUUUUUAUGAUCUGAAAUAUUCAGGUCUGCAGAUCGGAAGAGCACACGU
B9: target 3 insU 3' of 6,insU 3' of 6 (mixed)
RNA 1: CACCCGUGCAAAAUUGCAGGGGUCUAAAACGACCUGAAUAUUUCAGAUCAAA
RNA 2: GGGAAUGGAUCCACAUCUACGAAUUCGUUUUUGAUCUGAAAUAUUCUUAGGUCUGCAGAUCGGAAGAGCACACGU
B10: target 3 C6U,A11C (mixed)
RNA 1: CACCCGUGCAAAAUUGCAGGGGUCUAAAACGACCUGAAUAUUUCAGAUCAAA
RNA 2: GGGAAUGGAUCCACAUCUACGAAUUCGUUUUUGAUCUGAACUAUUUAGGUCUGCAGAUCGGAAGAGCACACGU
B11: target 3 C1G (mixed)
RNA 1: CACCCGUGCAAAAUUGCAGGGGUCUAAAACGACCUGAAUAUUUCAGAUCAAA
RNA 2: GGGAAUGGAUCCACAUCUACGAAUUCGUUUUUGAUCUGAAAUAUUCAGGUGUGCAGAUCGGAAGAGCACACGU
B12: target 3 C1U (mixed)
RNA 1: CACCCGUGCAAAAUUGCAGGGGUCUAAAACGACCUGAAUAUUUCAGAUCAAA
RNA 2: GGGAAUGGAUCCACAUCUACGAAUUCGUUUUUGAUCUGAAAUAUUCAGGUUUGCAGAUCGGAAGAGCACACGU
B13: target 3 C1U,A12G (mixed)
RNA 1: CACCCGUGCAAAAUUGCAGGGGUCUAAAACGACCUGAAUAUUUCAGAUCAAA
RNA 2: GGGAAUGGAUCCACAUCUACGAAUUCGUUUUUGAUCUGAGAUAUUCAGGUUUGCAGAUCGGAAGAGCACACGU
B14: target 3 insA 3' of 22,insG 3' of 1 (mixed)
RNA 1: CACCCGUGCAAAAUUGCAGGGGUCUAAAACGACCUGAAUAUUUCAGAUCAAA
RNA 2: GGGAAUGGAUCCACAUCUACGAAUUCGUUUAUUGAUCUGAAAUAUUCAGGUCGUGCAGAUCGGAAGAGCACACGU
B15: target 3 U21C (mixed)
RNA 1: CACCCGUGCAAAAUUGCAGGGGUCUAAAACGACCUGAAUAUUUCAGAUCAAA
RNA 2: GGGAAUGGAUCCACAUCUACGAAUUCGUUUCUGAUCUGAAAUAUUCAGGUCUGCAGAUCGGAAGAGCACACGU
B16: target 3 insU 3' of 3,insA 3' of 3 (mixed)
RNA 1: CACCCGUGCAAAAUUGCAGGGGUCUAAAACGACCUGAAUAUUUCAGAUCAAA
RNA 2: GGGAAUGGAUCCACAUCUACGAAUUCGUUUUUGAUCUGAAAUAUUCAGGUAUCUGCAGAUCGGAAGAGCACACGU
B17: target 3 insG 3' of 10,insU 3' of 3 (mixed)
RNA 1: CACCCGUGCAAAAUUGCAGGGGUCUAAAACGACCUGAAUAUUUCAGAUCAAA
RNA 2: GGGAAUGGAUCCACAUCUACGAAUUCGUUUUUGAUCUGAAAUGAUUCAGGUUCUGCAGAUCGGAAGAGCACACGU
B18: target 3 U2A,A12G (mixed)
RNA 1: CACCCGUGCAAAAUUGCAGGGGUCUAAAACGACCUGAAUAUUUCAGAUCAAA
RNA 2: GGGAAUGGAUCCACAUCUACGAAUUCGUUUUUGAUCUGAGAUAUUCAGGACUGCAGAUCGGAAGAGCACACGU
B19: target 3 insA 3' of 15,insU 3' of 1 (mixed)
RNA 1: CACCCGUGCAAAAUUGCAGGGGUCUAAAACGACCUGAAUAUUUCAGAUCAAA
RNA 2: GGGAAUGGAUCCACAUCUACGAAUUCGUUUUUGAUCUAGAAAUAUUCAGGUCUUGCAGAUCGGAAGAGCACACGU
B20: target 3 del8,del22 (mixed)
RNA 1: CACCCGUGCAAAAUUGCAGGGGUCUAAAACGACCUGAAUAUUUCAGAUCAAA
RNA 2: GGGAAUGGAUCCACAUCUACGAAUUCGUUUUGAUCUGAAAUAUCAGGUCUGCAGAUCGGAAGAGCACACGU
B21: target 3 C6G,A11G (mixed)
RNA 1: CACCCGUGCAAAAUUGCAGGGGUCUAAAACGACCUGAAUAUUUCAGAUCAAA
RNA 2: GGGAAUGGAUCCACAUCUACGAAUUCGUUUUUGAUCUGAAGUAUUGAGGUCUGCAGAUCGGAAGAGCACACGU
B22: target 3 del5 (mixed)
RNA 1: CACCCGUGCAAAAUUGCAGGGGUCUAAAACGACCUGAAUAUUUCAGAUCAAA
RNA 2: GGGAAUGGAUCCACAUCUACGAAUUCGUUUUUGAUCUGAAAUAUUCGGUCUGCAGAUCGGAAGAGCACACGU
B23: target 3 G4U,C6U (mixed)
RNA 1: CACCCGUGCAAAAUUGCAGGGGUCUAAAACGACCUGAAUAUUUCAGAUCAAA
RNA 2: GGGAAUGGAUCCACAUCUACGAAUUCGUUUUUGAUCUGAAAUAUUUAUGUCUGCAGAUCGGAAGAGCACACGU
B24: target 3 MT (mixed)
RNA 1: CACCCGUGCAAAAUUGCAGGGGUCUAAAACGACCUGAAUAUUUCAGAUCAAA
RNA 2: GGGAAUGGAUCCACAUCUACGAAUUCGUUUUUGAUCUGAAAUAUUCAGGUCUGCAGAUCGGAAGAGCACACGU
B25: target 1 G15C,C22U (mixed)
RNA 1: CACCCGUGCAAAAAUGCAGGGGUCUAAAACUGAGCGGAUAACCUCUCUAUGG
RNA 2: GGGAAUGGAUCCACAUCUACGAAUUCGUAUCAUAGACAGGUUAUCCGCUCACCGAGAUCGGAAGAGCACACGU
B26: target 1 insC 3' of 14 (mixed)
RNA 1: CACCCGUGCAAAAAUGCAGGGGUCUAAAACUGAGCGGAUAACCUCUCUAUGG
RNA 2: GGGAAUGGAUCCACAUCUACGAAUUCGUACCAUAGAGACGGUUAUCCGCUCACCGAGAUCGGAAGAGCACACGU
B27: target 1 A20U,C21A (mixed)
RNA 1: CACCCGUGCAAAAAUGCAGGGGUCUAAAACUGAGCGGAUAACCUCUCUAUGG
RNA 2: GGGAAUGGAUCCACAUCUACGAAUUCGUACAUUAGAGAGGUUAUCCGCUCACCGAGAUCGGAAGAGCACACGU

The target in this data set is T1, EsCas13d, nuclease-dead. The data set is described as follows: crRNA (strand 1, pre-loaded); Mg2+; 40 mM Tris-HCl pH 7.5, 150 mM NaCl, 6 mM MgCl2, 1 mM DTT, 0.1% Tween-20, 0.2 mg/ml BSA; 25 C; 10 min per concentration, then washed. To be noted: tags: His6-TwinStrep-SUMO cleaved; N-terminal SNAP kept (SNAP-Surface 488); label: 3' end held by stalled T7 RNA polymerase.
The term Kd denotes a measure of binding affinity in units of concentration. High values mean lower affinity, low ones higher affinity. The molecule B1 showed a Kd of 0.09 ± 0.026 µM.

B2 came in with a Kd of 0.071 ± 0.006 µM.

Turning to B3, the Kd was determined as 0.00885 ± 0.0008 µM.

B4 returned a Kd of 0.0845 ± 0.0235 µM.

With B5, the affinity, expressed as Kd, was 0.0835 ± 0.029 µM.

Take B6: the Kd worked out at 0.0385 ± 0.013 µM.

In turn, B7 gave a Kd of 0.0213 ± 0.00365 µM.

Molecule B8 gave a Kd of 0.028 ± 0.004 µM.

With B9, the Kd was found to be 0.0173 ± 0.0012 µM.

Consider B10, for which the Kd worked out at 0.063 ± 0.0176 µM.

B11: binding was put at a Kd of 0.0288 ± 0.00415 µM. Against the preceding molecule, the Kd is about 2.2-fold lower.

As to B12, the Kd was 0.0251 ± 0.00315 µM.

For the molecule B13, the Kd was found to be 0.06 ± 0.0135 µM.

With B14, the dissociation constant Kd was determined as 0.0345 ± 0.0075 µM.

Molecule B15 had a Kd of 0.071 ± 0.018 µM. This Kd lies about 2.1-fold higher than the previous one.

As to B16, the Kd turned out to be 0.0287 ± 0.003 µM.

B17 showed a Kd of 0.111 ± 0.0285 µM.

In turn, B18 displayed a Kd of 0.038 ± 0.006 µM.

For the molecule B19, the Kd came to 0.051 ± 0.005 µM.

The molecule B20 had a Kd of 0.0745 ± 0.013 µM.

B21 displayed a dissociation constant (Kd) of 0.06 ± 0.018 µM.

On to B22, for which the Kd came to 0.0655 ± 0.0125 µM.

The molecule B23 returned a dissociation constant Kd of 0.00745 ± 0.00085 µM. Compared with the last molecule, the Kd is about 8.8-fold lower.

As to B24, the Kd came out at 0.0156 ± 0.000185 µM.

As for B25, the Kd was ~0.07 µM.

With B26, the Kd stood at 0.043 ± 0.006 µM.

In the case of B27, the Kd amounted to 0.029 ± 0.005 µM.

The values above are taken from article PMC10786891, “Massively parallel profiling of RNA-targeting CRISPR-Cas13d”.
